These are literature values, as cited in paper PMC6893859 (Regulatory toxicology and pharmacology : RTP, 2018).

The subject of one data set is humans. Particulars: human, in vivo.
The next data set concerns patients. Particulars: human, in vivo.

“CSL-112: reformulated reconstituted and purified ApoA1 (from CSL-111)”: in the data set on humans, the tolerability entry is recorded as “well tolerated”.

With “CER-001: complex between recombinant human ApoA-I and dipalmitoyl phosphatidylcholine and sphingomyelin”, in the data set on patients, the safety and tolerability entry was “safe and well tolerated”.
